This passage reports self-cleavage results from the RNAGym collection of RNA variant scans (doi:10.7554/elife.80360).

To fix the notation:
B1: Hairpin Ribozyme (parent)
chain: GUCCUCUUUCACGUGCGCGUGAAAGAGAGAAGUGAACCAGAGAAACACACGUUGUGGUAUAUUACCUGGUA

The variants in the data set derive from B1. As to the kind of experiment: self-cleavage, relative activity (ratio to wild type); higher = more cleavage; co-transcriptional.
As to GUCCUCUUUCACGUGCGCAUGAAAGAGAGAAGUGAACCAGAGAACCACACGUUGUGGUAUAUUACCUGGUA [G19A A45C], the self-cleavage came to 0.108.

For GUCCUCUUUCACGUGCGCAUGAAAGAGAGAAGUGAACCAGAGAAGCACACGUUGUGGUAUAUUACCUGGUA [G19A A45G], the self-cleavage came to 0.195. For GUCCUCUUUCACGUGCGCAUGAAAGAGAGAAGUGAGCCAGAGAAACACACGUUGUGGUAUAUUACCUGGUA [G19A A36G], the self-cleavage came to 0.997. Under GUCCUCUUUCACGUGCGCAUGAAAGAGAGAAGUGAACCAGAGAAACACACGUUGUGGUAUAUUACCUGGUC [G19A A71C] stands 1.38. The value for GUCCUCUUUCACGUGCGUGUGAAAGAGAGAAGUGAACCAGAGAAACACACGUUGUGCUAUAUUACCUGGUA [C18U G57C] was 0.157; that for GUCCUCUUUCACGUGCGCAUGAAAGAGAGAAGUGAACCAGAGAAACAUACGUUGUGGUAUAUUACCUGGUA [G19A C48U] was 0.179. For the variant GUCCUCUUUCACGUGCGCAUGAAAGAGAGAAGUGAACCAGAGAAACAGACGUUGUGGUAUAUUACCUGGUA [G19A C48G], the self-cleavage was 0.153. The value for GUCCUCUUUCACGUGCGUGUGAAAGAGAGAAGUGAACCAGAGAAACACACGUUGCGGUAUAUUACCUGGUA [C18U U55C] was 0.318; that for GUCCUCUUUCACGUGCGCAUGAAAGAGAGAAGUGAACCAGAGAAACACACGUUGUGGUGUAUUACCUGGUA [G19A A59G] was 0.2.

In the case of GUCCUCUUUCACGUGCGUGUGAAAGAGAGAAGUGAACCAGAGAAACACACGUUGUGGUAUAAUACCUGGUA [C18U U62A], the self-cleavage was 0.225. GUCCUCUUUCACGUGCGCAUGAAAGAGCGAAGUGAACCAGAGAAACACACGUUGUGGUAUAUUACCUGGUA [G19A A28C]: the self-cleavage worked out at 0.417. For GUCCUCUUUCACGUGCGUGUGAAAGAGAGAAGUGAACCAGAGCAACACACGUUGUGGUAUAUUACCUGGUA [C18U A43C], the self-cleavage amounted to 0.164. Under GUCCUCUUUCACGUGCGUGUGAAAGAGAGAAGUGAACCAGAGAAACACACGUCGUGGUAUAUUACCUGGUA [C18U U53C] stands 1.03; under GUCCUCUUUCACGUGCGUGUGAAAGAGAGAAGUGAACCAGAAAAACACACGUUGUGGUAUAUUACCUGGUA [C18U G42A], 0.167; under GUCCUCUUUCACGUGCGUGUGAAAGAGAGAAGUGAACCAGACAAACACACGUUGUGGUAUAUUACCUGGUA [C18U G42C], 0.416. The value for GUCCUCUUUCACGUGCGUGUGAAAGAGAGAAGUGAACCAGAGAAACACACGUUGUGGAAUAUUACCUGGUA [C18U U58A] was 0.657; that for GUCCUCUUUCACGUGCGUGUGAAAGAGAGAAGUAAACCAGAGAAACACACGUUGUGGUAUAUUACCUGGUA [C18U G34A] was 1.3. The value for GUCCUCUUUCACGUGCGUGUGAAACAGAGAAGUGAACCAGAGAAACACACGUUGUGGUAUAUUACCUGGUA [C18U G25C] was 0.491.

GUCCUCUUUCACGUGCGUGUGAAAAAGAGAAGUGAACCAGAGAAACACACGUUGUGGUAUAUUACCUGGUA [C18U G25A]: the self-cleavage is 0.703. The value for GUCCUCUUUCACGUGCGUGUGAAAGAGAGAAGUGAACCAGAGAAACACACGUUGUAGUAUAUUACCUGGUA [C18U G56A] was 0.135; that for GUCCUCUUUCACGUGCGUGUGAAAGAGAGAAGUGAACCAGAGAAACACACGUUGUGGUAUAUUACCUGGGA [C18U U70G] was 0.973; that for GUCCUCUUUCACGUGCGCAUGAAAGUGAGAAGUGAACCAGAGAAACACACGUUGUGGUAUAUUACCUGGUA [G19A A26U] was 0.563. GUCCUCUUUCACGUGCGCAUGAAAGAGAGAAGUGAACCAGAGAAAUACACGUUGUGGUAUAUUACCUGGUA [G19A C46U]: the self-cleavage is 0.165.

On to GUCCUCUUUCACGUGCGCAUGAAAGAGAGAAGUGAACCAGAGAAAAACACGUUGUGGUAUAUUACCUGGUA [G19A C46A], for which the self-cleavage is 0.176. As to GUCCUCUUUCACGUGCGCAUGAAAGAGAGACGUGAACCAGAGAAACACACGUUGUGGUAUAUUACCUGGUA [G19A A31C], the self-cleavage came out at 0.136.

Turning to GUCCUCUUUCACGUGCGCAUGAAAGAGAGAUGUGAACCAGAGAAACACACGUUGUGGUAUAUUACCUGGUA [G19A A31U], the self-cleavage came out at 0.176. Under GUCCUCUUUCACGUGCGUGUGAAAGAGAGAAGUGAACCAGAGAAACACAGGUUGUGGUAUAUUACCUGGUA [C18U C50G] stands 0.217; under GUCCUCUUUCACGUGCGCAUUAAAGAGAGAAGUGAACCAGAGAAACACACGUUGUGGUAUAUUACCUGGUA [G19A G21U], 0.727. Take GUCCUCUUUCACGUGCGUGUGAAAGAGAGAAGUGAACCAGAGAAACACACGUUCUGGUAUAUUACCUGGUA [C18U G54C]: the self-cleavage was determined as 0.543. Consider GUCCUCUUUCACGUGCGUGUGAAAGAGAGAAGUGAACCAGAGAAACACACGUUGUGGUAUAUUACCUGGUU [C18U A71U], for which the self-cleavage was 0.832. The value for GUCCUCUUUCACGUGCGUGUGAAAGAGAGAAGUGAACCAGAGAAACACACUUUGUGGUAUAUUACCUGGUA [C18U G51U] was 0.993. Consider GUCCUCUUUCACGUGCGUGUGAAAGAGAGAAGUGAACCAGAGAAACACACGUUGUGGUAUAUUACCUGAUA [C18U G69A], for which the self-cleavage was 0.476. As to GUCCUCUUUCACGUGCGUGUGAAAGAGAGAAGUGAACCAGAGAAACACACGUUGUGGUAUAUUACUUGGUA [C18U C66U], the self-cleavage is 0.554. Under GUCCUCUUUCACGUGCGCAUGAAAAAGAGAAGUGAACCAGAGAAACACACGUUGUGGUAUAUUACCUGGUA [G19A G25A] stands 0.368; under GUCCUCUUUCACGUGCGUUUGAAAGAGAGAAGUGAACCAGAGAAACACACGUUGUGGUAUAUUACCUGGUA [C18U G19U], 1.1.

Regarding GUCCUCUUUCACGUGCGCAUGAAAGAGAGAAGUGAACCAGAGAAACACUCGUUGUGGUAUAUUACCUGGUA [G19A A49U], the self-cleavage is 0.17. Regarding GUCCUCUUUCACGUGCGCAUGAAAGAGAGAAGUGAACCAGAGAAACACCCGUUGUGGUAUAUUACCUGGUA [G19A A49C], the self-cleavage turned out to be 0.131. Turning to GUCCUCUUUCACGUGCGCAUGAAAGAGAGAAGUGAACCAGAGAAACACACGUUGUGGUAUCUUACCUGGUA [G19A A61C], the self-cleavage worked out at 0.169.
